From the supplement of paper PMC5998384 come the findings set out here.

The test system of data set [1] is HeLa Kyoto. Kind of data set: solubility in G1/S (NP-40 vs SDS abundance) (log2 ratio); higher = more soluble. The note with it: cell cycle stage: G1/S.
The subject of data set [2] is HeLa Kyoto. Put plainly: melting temperature (median over replicates), in situ; higher = more thermally stable.
Data set [3] deals with HeLa Kyoto. Kind of data set: solubility change mitosis vs G1/S (difference of NP-40 vs SDS log2 ratios) (log2 ratio difference); higher = more soluble in mitosis.
For data set [4], the system named is HeLa Kyoto. Put plainly: thermal stability score vs G1/S (z-score of summed log2 fold changes over temperatures); higher = more thermally stable than in G1/S.
Setting [5] is: cell cycle stage: early G1 (4.5 h after nocodazole release).
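Throughout, for melting temperature (median over replicates), in situ: HeLa Kyoto cells synchronized by double thymidine or nocodazole block, proteins quantified by TMT10plex mass spectrometry, three independent biological replicates.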
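Throughout, for solubility change mitosis vs G1/S (difference of NP-40 vs SDS log2 ratios): synchronized HeLa Kyoto cells (double thymidine block for G1/S, nocodazole release for mitosis), protein amounts in NP-40 versus SDS lysates quantified by mass spectrometry, three biological replicates.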
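Throughout, for solubility in G1/S (NP-40 vs SDS abundance): HeLa Kyoto cells arrested at G1/S by double thymidine block, proteins quantified by TMT10plex mass spectrometry in mild NP-40 versus SDS extracts, three biological replicates.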
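Throughout, for thermal stability score vs G1/S (z-score of summed log2 fold changes over temperatures): synchronized HeLa Kyoto cells, proteins quantified by TMT10plex mass spectrometry, three biological replicates, mitosis taken 0.5 h after nocodazole release, G1/S directly after double thymidine block.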

Consider “MAAETLLSSLLGLLLLGLLLPASLTGGVGSLNLEELSEMRYGIEILPLPVMGGQSQSSDVVIVSSKYKQRYECRLPAGAIHFQREREEETPAYQGPGIPELLSPMRDAPCLLKTKDWWTYEFCYGRHIQQYHMEDSEIKGEVLYLGYYQSAFDWDDETAKASKQHRLKRYHSQTYGNGSKCDLNGRPREAEVRFLCDEGAGISGDYIDRVDEPLSCSYVLTIRTPRLCPHPLLRPPPSAAPQAILCHPSLQPEEYMAYVQRQADSKQYGDKIIEELQDLGPQVWSETKSGVAPQKMAGASPTKDDSKDSDFWKMLNEPEDQAPGGEEVPAEEQDPSPEAADSASGAPNDFQNNVQVKVIRSPADLIRFIEELKGGTKKGKPNIGQEQPVDDAAEVPQREPEKERGDPERQREMEEEEDEDEDEDEDEDERQLLGEFEKELEGILLPSDRDRLRSEVKAGMERELENIIQETEKELDPDGLKKESERDRAMLALTSTLNKLIKRLEEKQSPELVKKHKKKRVVPKKPPPSPQPTEEDPEHRVRVRVTKLRLGGPNQDLTVLEMKRENPQLKQIEGLVKELLEREGLTAAGKIEIKIVRPWAEGTEEGARWLTDEDTRNLKEIFFNILVPGAEEAQKERQRQKELESNYRRVWGSPGGEGTGDLDEFDF [OS9]”, for which the “solubility in G1/S (log2)” value with HeLa Kyoto [1] came to 0.241. In addition, the melting temperature in the data set on HeLa Kyoto [2] (cell cycle stage: G1/S) stood at 54.4 °C; with HeLa Kyoto [2] (cell cycle stage: mitosis) it was 53.8 °C. Further, the “solubility change mitosis (log2)” value in the data set with HeLa Kyoto [3] is -0.128. For the same sequence, the thermal stability score in the data set on HeLa Kyoto [4] (setting [5]) is 0.21; in the data set on HeLa Kyoto [4] (cell cycle stage: mitosis), -0.468.
Take “MAAETQTLNFGPEWLRALSSGGSITSPPLSPALPKYKLADYRYGREEMLALFLKDNKIPSDLLDKEFLPILQEEPLPPLALVPFTEEEQRNFSMSVNSAAVLRLTGRGGGGTVVGAPRGRSSSRGRGRGRGECGFYQRSFDEVEGVFGRGGGREMHRSQSWEERGDRRFEKPGRKDVGRPNFEEGGPTSVGRKHEFIRSESENWRIFREEQNGEDEDGGWRLAGSRRDGERWRPHSPDGPRSAGWREHMERRRRFEFDFRDRDDERGYRRVRSGSGSIDDDRDSLPEWCLEDAEEEMGTFDSSGAFLSLKKVQKEPIPEEQEMDFRPVDEGEECSDSEGSHNEEAKEPDKTNKKEGEKTDRVGVEASEETPQTSSSSARPGTPSDHQSQEASQFERKDEPKTEQTEKAEEETRMENSLPAKVPSRGDEMVADVQQPLSQIPSDTASPLLILPPPVPNPSPTLRPVETPVVGAPGMGSVSTEPDDEEGLKHLEQQAEKMVAYLQDSALDDERLASKLQEHRAKGVSIPLMHEAMQKWYYKDPQGEIQGPFNNQEMAEWFQAGYFTMSLLVKRACDESFQPLGDIMKMWGRVPFSPGPAPPPHMGELDQERLTRQQELTALYQMQHLQYQQFLIQQQYAQVLAQQQKAALSSQQQQQLALLLQQFQTLKMRISDQNIIPSVTRSVSVPDTGSIWELQPTASQPTVWEGGSVWDLPLDTTTPGPALEQLQQLEKAKAAKLEQERREAEMRAKREEEERKRQEELRRQQEEILRRQQEEERKRREEEELARRKQEEALRRQREQEIALRRQREEEERQQQEEALRRLEERRREEEERRKQEELLRKQEEEAAKWAREEEEAQRRLEENRLRMEEEAARLRHEEEERKRKELEVQRQKELMRQRQQQQEALRRLQQQQQQQQLAQMKLPSSSTWGQQSNTTACQSQATLSLAEIQKLEEERERQLREEQRRQQRELMKALQQQQQQQQQKLSGWGNVSKPSGTTKSLLEIQQEEARQMQKQQQQQQQHQQPNRARNNTHSNLHTSIGNSVWGSINTGPPNQWASDLVSSIWSNADTKNSNMGFWDDAVKEVGPRNSTNKNKNNASLSKSVGVSNRQNKKVEEEEKLLKLFQGVNKAQDGFTQWCEQMLHALNTANNLDVPTFVSFLKEVESPYEVHDYIRAYLGDTSEAKEFAKQFLERRAKQKANQQRQQQQLPQQQQQQPPQQPPQQPQQQDSVWGMNHSTLHSVFQTNQSNNQQSNFEAVQSGKKKKKQKMVRADPSLLGFSVNASSERLNMGEIETLDDY [GIGYF2]”: the “solubility in G1/S (log2)” value in the data set on HeLa Kyoto [1] was -0.0985. In addition, the melting temperature in the data set with HeLa Kyoto [2] (cell cycle stage: G1/S) was 49.4 °C; with HeLa Kyoto [2] (cell cycle stage: mitosis), 49.8 °C. Moreover, the “solubility change mitosis (log2)” value in the data set with HeLa Kyoto [3] is -0.00842. Besides, the thermal stability score in the data set on HeLa Kyoto [4] (setting [5]) was 0.406; with HeLa Kyoto [4] (cell cycle stage: mitosis), 0.959.
As for “MAAFSKYLTARNSSLAGAAFLLLCLLHKRRRALGLHGKKSGKPPLQNNEKEGKKERAVVDKVFFSRLIQILKIMVPRTFCKETGYLVLIAVMLVSRTYCDVWMIQNGTLIESGIIGRSRKDFKRYLLNFIAAMPLISLVNNFLKYGLNELKLCFRVRLTKYLYEEYLQAFTYYKMGNLDNRIANPDQLLTQDVEKFCNSVVDLYSNLSKPFLDIVLYIFKLTSAIGAQGPASMMAYLVVSGLFLTRLRRPIGKMTITEQKYEGEYRYVNSRLITNSEEIAFYNGNKREKQTVHSVFRKLVEHLHNFILFRFSMGFIDSIIAKYLATVVGYLVVSRPFLDLSHPRHLKSTHSELLEDYYQSGRMLLRMSQALGRIVLAGREMTRLAGFTARITELMQVLKDLNHGKYERTMVSQQEKGIEGVQVIPLIPGAGEIIIADNIIKFDHVPLATPNGDVLIRDLNFEVRSGANVLICGPNGCGKSSLFRVLGELWPLFGGRLTKPERGKLFYVPQRPYMTLGTLRDQVIYPDGREDQKRKGISDLVLKEYLDNVQLGHILEREGGWDSVQDWMDVLSGGEKQRMAMARLFYHKPQFAILDECTSAVSVDVEGYIYSHCRKVGITLFTVSHRKSLWKHHEYYLHMDGRGNYEFKQITEDTVEFGS [ABCD3]”, in the data set with HeLa Kyoto [1], the “solubility in G1/S (log2)” value was -0.213. In addition, the melting temperature in the data set with HeLa Kyoto [2] (cell cycle stage: G1/S) was 52.5 °C; in the data set with HeLa Kyoto [2] (cell cycle stage: mitosis), 52.3 °C. The “solubility change mitosis (log2)” value in the data set with HeLa Kyoto [3] was -0.103. The thermal stability score in the data set with HeLa Kyoto [4] (setting [5]) is 1.37; in the data set with HeLa Kyoto [4] (cell cycle stage: mitosis) it was 0.619.
As to “MAAGAAEAAVAAVEEVGSAGQFEELLRLKAKSLLVVHFWAPWAPQCAQMNEVMAELAKELPQVSFVKLEAEGVPEVSEKYEISSVPTFLFFKNSQKIDRLDGAHAPELTKKVQRHASSGSFLPSANEHLKEDLNLRLKKLTHAAPCMLFMKGTPQEPRCGFSKQMVEILHKHNIQFSSFDIFSDEEVRQGLKAYSSWPTYPQLYVSGELIGGLDIIKELEASEELDTICPKAPKLEERLKVLTNKASVMLFMKGNKQEAKCGFSKQILEILNSTGVEYETFDILEDEEVRQGLKAYSNWPTYPQLYVKGELVGGLDIVKELKENGELLPILRGEN [GLRX3]”, the “solubility in G1/S (log2)” value with HeLa Kyoto [1] turned out to be 0.354. Also, the figures for the melting temperature in the data set with HeLa Kyoto [2] (cell cycle stage: G1/S) and in the data set with HeLa Kyoto [2] (cell cycle stage: mitosis) were 49.6 °C and 49.9 °C, respectively. Moreover, the “solubility change mitosis (log2)” value with HeLa Kyoto [3] was -0.111. Besides, the thermal stability score in the data set with HeLa Kyoto [4] (setting [5]) was 2.12; with HeLa Kyoto [4] (cell cycle stage: mitosis), 1.6.
